The source of these data is the DeepSol protein solubility set.

The nature of this data set: soluble on expression in E. coli; label from the status in PepcDB or PDB records.
For the sequence “MSLDQPLTFYGLKSMSGAFASYGKYADMGSRLAIAEHPQLLGHPLKYKVIDTEGNAGKAVRKVQEAIGQDGARFFQGCTLSSSALAVSKEIHKAGGVFMTPVGADEITGKDCNASTFRWSVPTYGAIRETLVPMSRQLPQAKRWYTITPQYVFGDALLDNARKVFAELGVEHIGNSYHSLQEQEFSGYLTNAIAAKPDVLVLLNFGSQASNALRQAVNFGIKDRMKVLMVWSAGLDQFQELGSDVLEGVYLGAQYWHQVDTPLNKLLVAATRKAYGINPNYPLAADYIGTKVMLEAIVKAGSLDGAAVSAALQGMRFQGPTGEELIRPGDHQVLKDYYLLRGKPQGQMRDEDDLAEVISSGRSFVEVDHTGCALAEGHHHHHH”, the “soluble on expression in E. coli” value was “soluble”.

For the sequence “MQMLIPQRLLLILNPILMMKRKKRKKRKKRRERETMMKIPRILKKLRRKRRTRRKRRKRRKRRRRKRRKRRRKRSPRKRRKRRNKDAFYILIISDPSRSLLFGFRKFSIIIQCLTYFSFHILFHNL”, the “soluble on expression in E. coli” value was “soluble”.

In the case of “MRVLIVKTSSMGDVLHTLPALTDAQQAIPEIKFDWVVEEGFAQIPSWHAAVERVIPVAIRRWRKAWFSAPIKAERKAFREALQAENYDAVIDAQGLVKSAALVTRLAHGVKHGMDWQTAREPLASLFYNRKHHIAKQQHAVERTRELFAKSLGYSKPQTQGDYAIAQHFLTNLPTDAGEYAVFLHATTRDDKHWPEEHWRELIGLLADSGIRIKLPWGAPHEEERAKRLAEGFAYVEVLPKMSLEGVARVLAGAKFVVSVDTGLSHLTAALDRPNITVYGPTDPGLIGGYGENQVECRSTSMSLADLPAQTVFQNLNLEIITNKLTSEIR”, the “soluble on expression in E. coli” value was “not soluble”.

For “AMKPAQKGKTFSNVEIFDPPTNYRDPQVLYARPLELSDGTLLGTWENYSPEPPNVWFPIVKSKDGGKTWKEISKVKDTQNNWGLRYQPQLYELPRAFGKYPKGTVLCSGSSIPSDLSETLIEVYASRDKGYTWEFVSHVALGGEALPNPGLTPVWEPFLMTYKEKLILYYSDQRDNATHSQKLVHQTTTDLKKWSKVVDDTKYADYYARPGMPTVAKLPNNEYIYVYEYGGGPNPPAGSDYWFPVYYRLSKDPQKFLNKAHHQIVSNDGTTPAGSPYVVWTPYGGKNGTIVVSCGTRSEIFTNQALGDASAWKKWDVPQPTAYTRSLLTFQKDPDLLMIMGAGILPPAGGKNTVSASVVRLSEVMKS”, the “soluble on expression in E. coli” value is “soluble”.

In the case of “SEAVLTEELDEEEQLLRRHRKEKKELQAKIQGMKNAVPKNDKKRRKQLTEDVAKLEKEMEQKHREELEQLKLTTKENKIDSVAVNISNLVLENQPPRISKAQKRREKKAALEKEREERIAEAEIENLTGARHMESEKLAQILAARQLEIKQIPSDGHCMYKAIEDQLKEKDCALTVVALRSQTAEYMQSHVEDFLPFLTNPNTGDMYTPEEFQKYCEDIVNTAAWGGQLELRALSHILQTPIEIIQADSPPIIVGEEYSKKPLILVYMRHAYGLGEHYNSVTRLVNIVTENCS”, the “soluble on expression in E. coli” value is given as “soluble”.

As to “MGSDKIHHHHHHMERLDVFDCSNVLIASYFTDDRGCAHENREHTLIYLCSGELEIEERGKKTVLHPGDCAFMRRDNRMWLQKKVEDGKPYRSVVLKFSRPFLREFYQTLNRQQIPTDSEREKVSLRVLPSNRPDIRSLFESVIPYFDAGEKPSEDVLKLKMVEGIYVLLNTDRNLYASLFDFVEPWKIDILDYLNENYMCDLSLEEIASYTGRSLATFKRDFAKVSNLTPQKWIVKRRLEAAHGLIKSGKKKVTEACFDVGFKNLSHFSKIYKEAYGVAPSW”, the “soluble on expression in E. coli” value was “not soluble”.

For “MSHIIDRRLNGKNKSAVNRERFLRRFKAQIKEAVSKAIKGRSITDIESGEKVSIPVKDISEPSFHHGKGGVWENVHPGNEEFVKGDRIPRPQGGAGGGGSKASQDGEGEDDFVFQLSREEFMNVFFDDLALPNLVKTQLMGIEEMKTVRAGYTNDGTPTNINIVRSPRGALARRVAMAAPTLSSIDEAEEELDTLIESDDDNALEVRDRRQRIHQMKERLASIPWIDPFDLRYNNRVKQPKPTSQAVMFCIMDVSGSMDEQKKDMAKRFFILLYMFLQRNYEKIEVVFIRHHTSAVEVNEQDFFHSRESGGTVVSSALNLMSDVIRKRYASSEWNIYAAQASDGDNWDSDSANCGRILEENLLPYCQYFAYIEITEGEPQNLWYEYLKVKAQCPQFAMQKIRSASDIYPVFRELFKRQPANGRVSALEHHHHHH”, the “soluble on expression in E. coli” value is “soluble”.

With “MGSDKIHHHHHHMTEAAEAGNRGFEDYYVNIGFTPDRLVSMLSLTGLSSVHSVVAFYDDRPAGFILNGIRMIGGKQVAWNGGTAVVPELRRQGIGQKLMAATVECYEEQGVELATLEAFRINERAIALYETFGYHIVDQLCFLQHIGALETSFRSKSVGENDYRVARGTAHDVRLLSFYQHTAPWRTQWFALRGGQSILVKDALNHTIGYALYERVFDGEGSLASIVLYQCEAAPGRDDADEIVREALDALFAPHDEPCKRTTFNMPRANERVVRILQEAGFTDAHTADGIPFEQVYMVRKGKDDR”, the “soluble on expression in E. coli” value is on record as “not soluble”.

As for “MAHHHHHHMGPRKSNAFASGKDDGAAAGKVRKVGGNGVGGSSATNSGSHKHGGAAAATMADIYTNEERAFLESQLALFTSGGGGSGGTDFARMTKEQWFAGLPTLVSATEKLLQAAADRYQQTCRERAAAAASVNGAQNAGSLPSADSSGVGKHGTTASSSHANSCTAEGIAPSGVAGSSDHRSTPAGGTPAQFAEENAYIIAQAQQLQWYPFTYQRWVELLLEPGKYHTACNDGGLRGDAIQTSLRRCILVTYPAVEGGDVI”, the “soluble on expression in E. coli” value is recorded as “soluble”.

Take “MGSDKIHHHHHHMIDFLLLKSLHSLLGLTITVCDQNFSVIREYKSEKTISLFYNHYLILSNFSKTQHDFLFHYGSLGELFLVHHIQQYYIIIGPWRSNVIDPLLLKKKLTETQINASEQDYFIDRLSQLPFFSLSQIRELLIVTNYCLTGVVKDKLSEPLHYYTKGWSNSFDLDKIKQFSKQNMSSYKYQYHFENNILKAVKSGSEFLLKETVEQFSNSIVPIISGDELRSEKNYSIMIYDRLSQATIQAGLDIETAYRARDRFIKENESTISLNEVLKLRDTAILFYTQQVHSLKKHLETPHSQTIVAVIRYLENNLNRFIKTEEIAKECHMSESKLRKLFKQEKHITIQQYFLNLKIEAAKQLLDENKKVEEVSNLLGFSTSSNFSRTFKKIVGISPLEYKQKPKTI”: the “soluble on expression in E. coli” value is listed as “not soluble”.

On to “PSFSFGGITPVSLQRSSMELISVQAVKHPKLLLYLSERGLQPSDASPFLSEVYYKVSRKCFFALGFPNDAGGWELRNPYFKGCFAPKAITTIKGTDSHKLLLFEGFMDFLSWRKLHPEGQAESIILNSLTLLPKLMPTLHPYPMIESLLDNDEAGDRATKQLIDAGLPVKDMRACYAPYKDINEYLTLAEQRKKILTPHKRGLRR”, for which the “soluble on expression in E. coli” value is reported as “not soluble”.

“MKLNDPLVESFEFRGEIYPIDLSFNKVLDVFDVIDDDFLNEAEKCFLCLDILLDRTDLPFTYAVDLWVYIKTNFIDAERPEKPQLDIKGNPMPVVKEKEDNKKVIDLSLDAEFIYASFRQAYQINLLKEQNRLSWIEFKALLNALPDDTVMQRIIAIRQWEDDGEGSKKYRDNMRKLKAKYSLDEREEEDDGS”: the “soluble on expression in E. coli” value is listed as “not soluble”.

“MKIAALYDIHGNYPALKEVLKQVKKLSPDLVVLGGDLIAGPMPLETLSLLKHVSTTFKTVGIMGNNDQDIVDIYAKKRVGLSRKATEQLTWIANQLSYKQVSFLRNLLPSISIGNYFFCHAVKNDNTTVFSPQQNKAYIETLFKGVQESYIICGHTHIQFELSLPNKKIINAGSIGMPFSNQFGAQWLWLDDNRIEYKRTIFNQQAAIQLISQTEYPFKNEFIANNLRSTISLSQGYSILNTLIRAQNAQHDLSLEHHHHHH”: the “soluble on expression in E. coli” value was “soluble”.

In the case of “MGSDKIHHHHHHMKPIIIFFSLFLIPLFADDLKSGFGEEYYKLDIDQKRQIFFIKMNEMFDQSFKKIEQERAFIEAFFKDAYKTGFRTSNQINLEKLITIKNKYRIENLYDFAEYKKRIQKIPKSMGIAQALVESATGTSRFAREANNLFGEWTWGEKGLIPDLRHPDKKHKIKIFDSLQDSVDSYVLNLNRHFAYEKFRDARAKFESEGKEITGLEAIKTLDSYSERKGYYINLITKIIKRYNLEKYDTNSNNT”, the “soluble on expression in E. coli” value is listed as “not soluble”.

In the case of “RPDQVKLALDKPAYNDGDTAKVTVTPPAAGKGYLLIESSEGPLWWKEIDVPAEGKSYEIPLDKQWARHDLYVTALVIRPGERKANVTPKRAVGVLHLPLDRAQRKLALTVTAPEKMRPKQPLTLKVVAKNADGSVPEQVQVLVSAVDVGILNITRY”, the “soluble on expression in E. coli” value was “not soluble”.

With “GNPLRKFKLVFLGEQSVGKTSLITRFMYDSFDNTYQATIGIDFLSKTMYLEDRTVRLQLWDTAGLERFRSLIPSYIRDSTVAVVVYDITNVNSFQQTTKWIDDVRTERGSDVIIMLVGNKTDLADKRQVSIEEGERKAKELNVMFIETSAKAGYNVKQLFRRVAAALPGMESTQDRSREDMIDIKLEK”, the “soluble on expression in E. coli” value is listed as “soluble”.

Take “SLLDTLLINIGQLLTMDQEDGLLRREAMNTLPVIENGAVGIENGVITFVGTAEEAKGLQAKEVIDCGGKMVSPGLVDPHTHLVFGGSRENEIALKLQGVPYLEILEQGGGILSTVNATKQSSKEELVQKAKFHLDRMLSFGVTTVEAKSGYGLDDETEWKQLEATAQLQKEHPIDLVSTFLGAHAVPKEYKGRSKEFLQWMLDLLPEMKEKQLAEFVDIFCETGVFSVEESKEFLLKAKELGFDVKIHADEIDPLGGAEAAAEIGAASADHLVGASDKGIEMLANSNTVATLLPGTTFYLNKESFARGRKMIDEGVAVALATDFNPGSCPTENIQLIMSIAMLKLKMTPEEVWNAVTVNSSYAINRGDVAGKIRVGRKADLVLWDAYNYAYVPYHYGVSHVNTVWKNGNIAYTRGEQSWSTATI”: the “soluble on expression in E. coli” value was “soluble”.

“MGSDKIHHHHHHMRRFLILFVLLVAGCTGVDPNNPQYRAFVAVAEDVEPVGEAQCRSKDPERNCDFQIQLDLNPSAPANAFQTVDRSGRPVVIFTRSMLDSFRNPDEMAFVMGHEMAHHILEHLDQQRINAVKGAVFLGELVSLEGGTPEQVANAQYVGAVVGSRSYSKAFELEADALGTLITYQAGYRPSVGVKFFEEIPDPGDVFLGTHPANPDRIRIVQRTIRKYGLN”: the “soluble on expression in E. coli” value is given as “not soluble”.

Consider “MCHNGRMESLSLSHHFLIAMPGMGDPLFAKSLVYLCEHGEHGAMGLIINKPSGIAMAQLFDQIDLPLDDEDTRTGLVYFGGPVQPDRGFVLHQPAGNWQSSLMVTDDIALTTSKDVLVAVSEGKKPEQLLISLGYAGWSAGQLEKEIADNGWLTVPAEPSIVFDLPYEERYDAAMALLGFDPSLLSSDVGHALEHHHHHH”, for which the “soluble on expression in E. coli” value is “soluble”.

As to “MASRVNIVQVQILDNPAMFVDKFKMEITFEVFEHLPHDLEWELVYVGSGTSRDFDQVLDSALVGPIPEGRHKFVFDAEHPDISKIPVEDIVGVSVLLLRCKYNDQEFINMGWFVANEYTDEELKENPPAKPLIEKLSRKIETEDLRVTTFPIRWTDEDPVAEPVDEEANKVFDEDDLMPLHDDGQDDDEEEEDDDETGPNTEEVDLNESFNERMANAHDGTEQKNGEESMEHDGASGDVEMGDKH”, the “soluble on expression in E. coli” value is recorded as “soluble”.

On to “MGSDKIHHHHHHMIKWRDGKLGLPIKEAVELFPELKNFLDEKGRLDFSNREARILYNKAVAKVLFDLDIEYHPKGLVTPPISRYIFLKTFLRGGEKVLEIGTGHTALMSLIAEKVFKCDVTATELDNEFYSYAKLNIARNNSRIKLLKSSGGIIRGVVPRGERFDVIFSAPPYYEKHSGGVLTEREALGGGKFGEEFSIKLLNEALDYLNAGGKVALFLPHKRDLLNAIKMKGIRLGYEVRDILFKVGTRKRHSLILTV”, for which the “soluble on expression in E. coli” value is “not soluble”.

In the case of “MKFTFEVPAPLQQVAPISYYESLLSNYRYRDISFLEMSTTGKILGECTIGENNYTIQGSECDGLISSIEILDVKEADSFLDIPLSLPNRKFVKALKDLGIEFDHDRDGVTIHHENRVIALSYQFGKVAAICWDSE”, the “soluble on expression in E. coli” value is “not soluble”.
